# Reference: publication PMC9388682, “Structural basis for cannabinoid-induced potentiation of alpha1-glycine receptors in lipid nanodiscs” (Nature Communications, 2022)
# Target: the molecule itself
# Test: cryo-EM structure; purified GlyR in asolectin nanodiscs (MSP1E3D1), buffer A (200 mM NaCl, 20 mM HEPES pH 8.0); with or without 32 μM THC and 0, 0.1 or 1 mM glycine; Titan Krios 300 keV, RELION; homopentamer
protein,measurement,value
"zebrafish glycine receptor alpha1 (GlyRα1), full-length, homopentamer in asolectin nanodiscs (receptor, UniProt O93430 25-444, looked up, N-glycans at Asn62, glycine receptor subunit alpha-1, zebrafish, codon-optimized full-length gene (NCBI NP_571477); residues of the models numbered as in UniProt O93430; Phe341-Lys394 (M3-M4 loop, ICD) not modelled in the structures; also called zebrafish homomeric GlyRα1; glycine α1 receptor) ARKAASPMPPSEFLDKLMGKVSGYDARIRPNFKGPPVNVTCNIFINSFGSIAETTMDYRVNIFLRQQWNDPRLAYSEYPDDSLDLDPSMLDSIWKPDLFFANEKGANFHEVTTDNKLLRISKNGNVLYSIRITLVLACPMDLKNFPMDVQTCIMQLESFGYTMNDLIFEWDEKGAVQVADGLTLPQFILKEEKDLRYCTKHYNTGKFTCIEARFHLERQMGYYLIQMYIPSLLIVILSWVSFWINMDAAPARVGLGITTVLTMTTQSSGSRASLPKVSYVKAIDIWMAVCLLFVFSALLEYAAVNFIARQHKELLRFQRRRRHLKEDEAGDGRFSFAAYGMGPACLQAKDGMAIKGNNNNAPTSTNPPEKTVEEMRKLFISRAKRIDTVSRVAFPLVFLIFNIFYWITYKIIRSEDIHKQ",stoichiometry N,5
